Assay results reported in the supplement of paper PMC10567573.

B1: PKD2L1 (parent)
chain: YSGGGYYLDLPGSRQGSAEALRAL
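Further: lentivirally expressed fusions sorted by FACS into six bins by GFP to DsRed ratio, PSI derived from sequencing read proportions per bin multiplied by bin number.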

Variants of: B1
Experiment: protein stability index of a GFP-peptide fusion (GPS, HEK-293T) (PSI 1-6); higher = more stable
Conditions: c terminus: a fixed tail appended
With YSGGGMYLDLPGSRQGSAEALRAL [Y6M] the protein stability index was 2.16. YSGGGSYLDLPGSRQGSAEALRAL [Y6S] showed a protein stability index of 3.28. Variant YSGGGNYLDLPGSRQGSAEALRAL [Y6N] has a protein stability index of 2.83. Variant YSGGGEYLDLPGSRQGSAEALRAL [Y6E] has a protein stability index of 3.37. YSGGGPYLDLPGSRQGSAEALRAL [Y6P] gave a protein stability index of 2.42. For YSGGGRYLDLPGSRQGSAEALRAL [Y6R], the protein stability index was 2.64. Work on YSGGGLYLDLPGSRQGSAEALRAL [Y6L] yielded a protein stability index of 1.59. Variant YSGGGCYLDLPGSRQGSAEALRAL [Y6C] has a protein stability index of 2.75. Variant YSGGGTYLDLPGSRQGSAEALRAL [Y6T] has a protein stability index of 2.75. YSGGGKYLDLPGSRQGSAEALRAL [Y6K] gave a protein stability index of 2.66. For YSGGGGYLDLPGSRQGSAEALRAL [Y6G], the protein stability index was 1.84. YSGGGVYLDLPGSRQGSAEALRAL [Y6V] showed a protein stability index of 2.24. With YSGGGAYLDLPGSRQGSAEALRAL [Y6A] the protein stability index was 2.27. In the case of YSGGGDYLDLPGSRQGSAEALRAL [Y6D], the protein stability index is reported as 2.57. With YSGGGWYLDLPGSRQGSAEALRAL [Y6W] the protein stability index was 5.5. Variant YSGGGIYLDLPGSRQGSAEALRAL [Y6I] has a protein stability index of 1.79. Variant YSGGGHYLDLPGSRQGSAEALRAL [Y6H] has a protein stability index of 2.16. YSGGGQYLDLPGSRQGSAEALRAL [Y6Q] showed a protein stability index of 2.83. In the case of YSGGGFYLDLPGSRQGSAEALRAL [Y6F], the protein stability index is reported as 2.25. In the case of YSGGGYWLDLPGSRQGSAEALRAL [Y7W], the protein stability index is reported as 1.91. Variant YSGGGYDLDLPGSRQGSAEALRAL [Y7D] has a protein stability index of 3.25. In the case of YSGGGYPLDLPGSRQGSAEALRAL [Y7P], the protein stability index is reported as 2.96. YSGGGYALDLPGSRQGSAEALRAL [Y7A] showed a protein stability index of 2.17. Variant YSGGGYILDLPGSRQGSAEALRAL [Y7I] has a protein stability index of 1.39. YSGGGYMLDLPGSRQGSAEALRAL [Y7M] showed a protein stability index of 1.61. YSGGGYKLDLPGSRQGSAEALRAL [Y7K] gave a protein stability index of 2.75. Work on YSGGGYGLDLPGSRQGSAEALRAL [Y7G] yielded a protein stability index of 2.24. Work on YSGGGYQLDLPGSRQGSAEALRAL [Y7Q] yielded a protein stability index of 2.4. Work on YSGGGYELDLPGSRQGSAEALRAL [Y7E] yielded a protein stability index of 3.37. With YSGGGYNLDLPGSRQGSAEALRAL [Y7N] the protein stability index was 2.59. YSGGGYHLDLPGSRQGSAEALRAL [Y7H] showed a protein stability index of 2.26. For YSGGGYTLDLPGSRQGSAEALRAL [Y7T], the protein stability index was 2.71. Work on YSGGGYLLDLPGSRQGSAEALRAL [Y7L] yielded a protein stability index of 1.66. YSGGGYFLDLPGSRQGSAEALRAL [Y7F] showed a protein stability index of 1.56. For YSGGGYRLDLPGSRQGSAEALRAL [Y7R], the protein stability index was 2.06. Work on YSGGGYVLDLPGSRQGSAEALRAL [Y7V] yielded a protein stability index of 2.21. Variant YSGGGYSLDLPGSRQGSAEALRAL [Y7S] has a protein stability index of 3.21. Work on YSGGGYCLDLPGSRQGSAEALRAL [Y7C] yielded a protein stability index of 1.93. Variant YSGGAYYLDLPGSRQGSAEALRAL [G5A] has a protein stability index of 1.14. Variant YSGGQYYLDLPGSRQGSAEALRAL [G5Q] has a protein stability index of 1.39. In the case of YSGGEYYLDLPGSRQGSAEALRAL [G5E], the protein stability index is reported as 2.06. YSGGPYYLDLPGSRQGSAEALRAL [G5P] gave a protein stability index of 2.41. For YSGGTYYLDLPGSRQGSAEALRAL [G5T], the protein stability index was 1.96. For YSGGHYYLDLPGSRQGSAEALRAL [G5H], the protein stability index was 2.28. Work on YSGGWYYLDLPGSRQGSAEALRAL [G5W] yielded a protein stability index of 3.35. In the case of YSGGNYYLDLPGSRQGSAEALRAL [G5N], the protein stability index is reported as 1.76. YSGGCYYLDLPGSRQGSAEALRAL [G5C] gave a protein stability index of 1.25. Variant YSGGRYYLDLPGSRQGSAEALRAL [G5R] has a protein stability index of 2.67. Variant YSGGKYYLDLPGSRQGSAEALRAL [G5K] has a protein stability index of 2.65. In the case of YSGGDYYLDLPGSRQGSAEALRAL [G5D], the protein stability index is reported as 2.28. With YSGGIYYLDLPGSRQGSAEALRAL [G5I] the protein stability index was 1.33. YSGGMYYLDLPGSRQGSAEALRAL [G5M] showed a protein stability index of 2.68. For YSGGSYYLDLPGSRQGSAEALRAL [G5S], the protein stability index was 1.83. YSGGFYYLDLPGSRQGSAEALRAL [G5F] gave a protein stability index of 2.17. Work on YSGGVYYLDLPGSRQGSAEALRAL [G5V] yielded a protein stability index of 2.1. Variant YSGGYYYLDLPGSRQGSAEALRAL [G5Y] has a protein stability index of 1.71. In the case of YSGGLYYLDLPGSRQGSAEALRAL [G5L], the protein stability index is reported as 1.6. YSGGGYYPDLPGSRQGSAEALRAL [L8P] showed a protein stability index of 1.99. For YSGGGYYTDLPGSRQGSAEALRAL [L8T], the protein stability index was 3.55. Work on YSGGGYYCDLPGSRQGSAEALRAL [L8C] yielded a protein stability index of 1.69. YSGGGYYFDLPGSRQGSAEALRAL [L8F] showed a protein stability index of 2.66. YSGGGYYMDLPGSRQGSAEALRAL [L8M] showed a protein stability index of 3.21. YSGGGYYDDLPGSRQGSAEALRAL [L8D] showed a protein stability index of 1.99. In the case of YSGGGYYYDLPGSRQGSAEALRAL [L8Y], the protein stability index is reported as 2.03. In the case of YSGGGYYSDLPGSRQGSAEALRAL [L8S], the protein stability index is reported as 1.37. Work on YSGGGYYNDLPGSRQGSAEALRAL [L8N] yielded a protein stability index of 1.73. Work on YSGGGYYKDLPGSRQGSAEALRAL [L8K] yielded a protein stability index of 1.42. In the case of YSGGGYYQDLPGSRQGSAEALRAL [L8Q], the protein stability index is reported as 2.26. With YSGGGYYHDLPGSRQGSAEALRAL [L8H] the protein stability index was 4.24. YSGGGYYRDLPGSRQGSAEALRAL [L8R] showed a protein stability index of 2.08. Variant YSGGGYYEDLPGSRQGSAEALRAL [L8E] has a protein stability index of 2.9. Work on YSGGGYYIDLPGSRQGSAEALRAL [L8I] yielded a protein stability index of 2.77. YSGGGYYADLPGSRQGSAEALRAL [L8A] gave a protein stability index of 2.12. YSGGGYYWDLPGSRQGSAEALRAL [L8W] showed a protein stability index of 2.72. YSGGGYYGDLPGSRQGSAEALRAL [L8G] showed a protein stability index of 1.67. Variant YSGGGYYVDLPGSRQGSAEALRAL [L8V] has a protein stability index of 2.45. With YSGGGYYLALPGSRQGSAEALRAL [D9A] the protein stability index was 4.81. YSGGGYYLTLPGSRQGSAEALRAL [D9T] showed a protein stability index of 3.34. For YSGGGYYLYLPGSRQGSAEALRAL [D9Y], the protein stability index was 4.13. For YSGGGYYLELPGSRQGSAEALRAL [D9E], the protein stability index was 2.01. With YSGGGYYLKLPGSRQGSAEALRAL [D9K] the protein stability index was 2.59. In the case of YSGGGYYLLLPGSRQGSAEALRAL [D9L], the protein stability index is reported as 4.93. YSGGGYYLILPGSRQGSAEALRAL [D9I] showed a protein stability index of 3.81. Work on YSGGGYYLFLPGSRQGSAEALRAL [D9F] yielded a protein stability index of 3.62. YSGGGYYLQLPGSRQGSAEALRAL [D9Q] gave a protein stability index of 1.24. Variant YSGGGYYLWLPGSRQGSAEALRAL [D9W] has a protein stability index of 2.87. Variant YSGGGYYLNLPGSRQGSAEALRAL [D9N] has a protein stability index of 2.46. YSGGGYYLSLPGSRQGSAEALRAL [D9S] showed a protein stability index of 1.83. Variant YSGGGYYLHLPGSRQGSAEALRAL [D9H] has a protein stability index of 1.95. For YSGGGYYLGLPGSRQGSAEALRAL [D9G], the protein stability index was 3.74. Work on YSGGGYYLRLPGSRQGSAEALRAL [D9R] yielded a protein stability index of 2. Work on YSGGGYYLMLPGSRQGSAEALRAL [D9M] yielded a protein stability index of 3.33. YSGGGYYLPLPGSRQGSAEALRAL [D9P] showed a protein stability index of 1.66. Work on YSGGGYYLDLPGSAQGSAEALRAL [R14A] yielded a protein stability index of 3.28.
